The target in data set [1] is GST-PKBα, P31749.
In data set [2] the target is T1, GST-SGK (full length, wild type), O00141.
T1 chain: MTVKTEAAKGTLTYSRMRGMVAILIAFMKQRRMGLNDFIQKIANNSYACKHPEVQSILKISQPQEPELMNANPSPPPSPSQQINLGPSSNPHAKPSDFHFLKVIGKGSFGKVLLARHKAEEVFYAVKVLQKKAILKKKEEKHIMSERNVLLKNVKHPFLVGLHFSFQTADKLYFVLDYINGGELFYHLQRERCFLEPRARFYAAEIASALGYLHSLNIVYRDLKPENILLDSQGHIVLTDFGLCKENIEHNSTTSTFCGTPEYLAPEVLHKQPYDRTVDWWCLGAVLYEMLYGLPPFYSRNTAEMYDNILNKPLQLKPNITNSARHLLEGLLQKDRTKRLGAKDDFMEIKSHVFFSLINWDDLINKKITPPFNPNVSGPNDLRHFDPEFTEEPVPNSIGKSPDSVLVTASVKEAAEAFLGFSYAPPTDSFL

Data set [3] deals with GST-SGK with Lys127 mutated to Ala (kinase dead), O00141.
The target in data set [4] is GST-SGK with both Thr256 and Ser422 mutated to Ala, O00141.
Data set [5] deals with T2, GST-SGK2α (wild type).
T2 chain: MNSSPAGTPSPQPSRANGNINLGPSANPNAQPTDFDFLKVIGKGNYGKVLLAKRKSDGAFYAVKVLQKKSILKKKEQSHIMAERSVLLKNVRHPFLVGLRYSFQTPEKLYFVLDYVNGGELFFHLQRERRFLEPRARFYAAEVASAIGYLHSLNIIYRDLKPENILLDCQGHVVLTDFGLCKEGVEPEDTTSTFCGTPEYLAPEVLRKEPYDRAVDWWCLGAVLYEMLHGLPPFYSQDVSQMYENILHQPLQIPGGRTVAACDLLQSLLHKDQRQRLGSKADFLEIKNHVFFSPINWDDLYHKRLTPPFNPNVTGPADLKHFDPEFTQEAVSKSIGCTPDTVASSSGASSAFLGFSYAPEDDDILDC

Data set [6] deals with GST-SGK2α[S356D].
Data set [7] deals with T3, GST-SGK3 (wild type).
T3 chain: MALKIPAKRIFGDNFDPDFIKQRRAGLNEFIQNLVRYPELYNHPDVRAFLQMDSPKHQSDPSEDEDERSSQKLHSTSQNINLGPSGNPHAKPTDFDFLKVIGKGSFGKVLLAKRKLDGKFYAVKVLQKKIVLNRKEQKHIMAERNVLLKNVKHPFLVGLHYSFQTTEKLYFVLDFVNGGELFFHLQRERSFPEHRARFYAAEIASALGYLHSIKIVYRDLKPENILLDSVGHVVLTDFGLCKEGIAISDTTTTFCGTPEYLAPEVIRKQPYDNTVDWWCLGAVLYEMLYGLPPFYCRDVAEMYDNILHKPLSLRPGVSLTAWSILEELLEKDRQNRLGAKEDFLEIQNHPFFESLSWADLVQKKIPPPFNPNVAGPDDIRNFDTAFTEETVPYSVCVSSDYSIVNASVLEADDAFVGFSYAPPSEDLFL

In data set [8] the target is GST-SGK[S422A], O00141.
Data set [9] has as its target GST-SGK[S422D], O00141.
Data set [10] deals with GST-SGK[T256A/S422D], O00141.
The target of data set [11] is GST-SGK[T256A], O00141.
The target of data set [12] is GST-ΔN-SGK(61-431)[S422D], O00141.

We go through one protein from patent US7083511.

Sequence of GST-PKBα, P31749 (P31749 whole entry, looked up): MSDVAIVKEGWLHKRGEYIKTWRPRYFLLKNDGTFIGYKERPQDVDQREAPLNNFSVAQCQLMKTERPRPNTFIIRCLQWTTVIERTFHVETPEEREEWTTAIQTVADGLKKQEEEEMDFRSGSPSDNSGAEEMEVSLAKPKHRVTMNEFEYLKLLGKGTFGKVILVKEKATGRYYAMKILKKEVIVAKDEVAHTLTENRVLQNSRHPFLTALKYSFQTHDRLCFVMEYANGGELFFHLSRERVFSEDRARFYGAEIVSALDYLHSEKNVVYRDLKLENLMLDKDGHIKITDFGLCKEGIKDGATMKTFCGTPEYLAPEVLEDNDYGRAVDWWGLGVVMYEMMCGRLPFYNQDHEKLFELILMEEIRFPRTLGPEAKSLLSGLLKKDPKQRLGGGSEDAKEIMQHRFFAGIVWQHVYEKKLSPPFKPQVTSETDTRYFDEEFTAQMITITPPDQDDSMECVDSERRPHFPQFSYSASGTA

B1: GST-PDK1 (protein)
chain: MARTTSQLYDAVPIQSSVVLCSCPSPSMVRTQTESSTPPGIPGGSRQGPAMDGTAAEPRPGAGSLQHAQPPPQPRKKRPEDFKFGKILGEGSFSTVVLARELATSREYAIKILEKRHIIKENKVPYVTRERDVMSRLDHPFFVKLYFTFQDDEKLYFGLSYAKNGELLKYIRKIGSFDETCTRFYTAEIVSALEYLHGKGIIHRDLKPENILLNEDMHIQITDFGTAKVLSPESKQARANSFVGTAQYVSPELLTEKSACKSSDLWALGCIIYQLVAGLPPFRAGNEYLIFQKIIKLEYDFPEKFFPKARDLVEKLLVLDATKRLGCEEMEGYGPLKAHPFFESVTWENLHQQTPPKLTAYLPAMSEDDEDCYGNYDNLLSQFGCMQVSSSSSSHSLSASDTGLPQRSGSNIEQYIHDLDSNSFELDLQFSEDEKRLLLEKQAGGNPWHQFVENNLILKMGPVDKRKGLFARRRQLLLTEGPHLYYVDPVNKVLKGEIPWSQELRPEAKNFKTFFVHTPNRTYYLMDPSGNAHKWCRKIQEVWRQRYQSHPDAAVQ
For B1, the “maximal stoichiometry of phosphorylation by PDK1” value in data set [1] was “compared to 0.5 mol/mol for PKBα”; in [2], “the maximal stoichiometry of phosphorylation that could be attained was 0.05 mol/mol”. The “increase of SGK activity (Crosstide assay) after phosphorylation by PDK1” value in [2] is “phosphor-ylation was accompanied by a 10-fold increase in the basal activity”. For the same protein, the “stoichiometry of phosphorylation at 1.5 µg/ml PDK1, 30 min” value is “close to 1 mol/mol for SGK1 and SGK3” in data set [2]; 0.2 mol/mol for SGK2 in data set [5]; “close to 1 mol/mol for SGK1 and SGK3” in data set [7]. Besides, the “phosphorylation by PDK1” value in data set [3] is “This mutant was phosphorylated at the same rate, and to the same extent, as wild type SGK”. Besides, the “reduction of phosphorylation by PDK1” value in data set [4] was “reduced phosphorylation by 80-90%”; in [10], “phosphorylation by PDK1 was reduced by 80-90%”; in [11] it was “reduced phosphorylation by 80-90%”. Moreover, the “activation and phosphorylation by PDK1, against wild type SGK2α” value in data set [6] was “SGK2[Ser356Asp] was activated (FIG. 17B) and phosphorylated (FIG. 17E) by PDK1 much more effectively than wild type SGK2α”. For the same protein, the “phosphate incorporated, 30 min with 1.5 µg/ml PDK1 and MgATP” value in [6] is “incorporation of 1.2 and 1.3 mol phosphate per mol protein, respectively”; in data set [7] it was “incorporation of 1.2 and 1.3 mol phosphate per mol protein, respectively”. In addition, the “extent of phosphorylation by PDK1” value in data set [8] was “The mutation of Ser422 to Ala did not affect the extent of phosphorylation of SGK by PDK1”. In addition, the “reduction of the extent of activation by PDK1” value in data set [8] is “reduced the extent of activation by 60%”. For the same protein, the “rate of phosphorylation and activation by PDK1, against wild type” value in [9] is “stimulated the rate of phosphorylation (FIG. 5C) and activation (FIG. 5D) by PDK1 at least six-fold”. Also, the “stoichiometry of phosphorylation by PDK1” value in data set [12] is given as “phosphorylated by PDK1 to a stoichiometry of 0.6 mol/mol protein”.
